Reference: patent publication US20220047729A1

Target: recombinant hPD-L2 hIgG1 Fc-fusion protein (R&D Systems) (human) (UniProt Q9BQ51)
Assay: flow cytometry, HEK 293 cells displaying the PD-1 construct, one dose of hPD-L2 Fc fusion, percent of PD-1-positive cells bound

Sequence of UniProt Q9BQ51 (Q9BQ51 20-219 limits assumed): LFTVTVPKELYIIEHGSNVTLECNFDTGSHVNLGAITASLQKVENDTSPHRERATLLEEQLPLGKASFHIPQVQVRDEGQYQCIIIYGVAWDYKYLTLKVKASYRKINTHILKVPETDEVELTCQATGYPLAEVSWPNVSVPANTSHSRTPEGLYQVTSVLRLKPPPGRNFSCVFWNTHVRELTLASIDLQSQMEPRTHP

| Substance | average binding normalized to wild type (AVE-hPD-L2) (relative to wild type) |
| --- | --- |
| human PD-1 mutant I134T (hPD-1 Type I mCherry, on HEK 293 cells) (from UniProt Q15116 25-168) (receptor) | 0.307 |
| human PD-1 mutant N66E (hPD-1 Type I mCherry, on HEK 293 cells) (from UniProt Q15116 25-168) (receptor) | 0.00438 |
| human PD-1 mutant K131H (hPD-1 Type I mCherry, on HEK 293 cells) (from UniProt Q15116 25-168) (receptor) | 1.58 |
| human PD-1 mutant E136Q (hPD-1 Type I mCherry, on HEK 293 cells) (from UniProt Q15116 25-168) (receptor) | 0.967 |
| human PD-1 mutant G124Y (hPD-1 Type I mCherry, on HEK 293 cells) (from UniProt Q15116 25-168) (receptor) | 0.557 |
| human PD-1 mutant G124V (hPD-1 Type I mCherry, on HEK 293 cells) (from UniProt Q15116 25-168) (receptor) | 1.16 |
| human PD-1 mutant E136N (hPD-1 Type I mCherry, on HEK 293 cells) (from UniProt Q15116 25-168) (receptor) | 0.82 |
| human PD-1 mutant T76N (hPD-1 Type I mCherry, on HEK 293 cells) (from UniProt Q15116 25-168) (receptor) | 0.998 |
| human PD-1 mutant T76S (hPD-1 Type I mCherry, on HEK 293 cells) (from UniProt Q15116 25-168) (receptor) | 0.954 |
| human PD-1 mutant L128W (hPD-1 Type I mCherry, on HEK 293 cells) (from UniProt Q15116 25-168) (receptor) | 1.03 |
| human PD-1 mutant I134F (hPD-1 Type I mCherry, on HEK 293 cells) (from UniProt Q15116 25-168) (receptor) | 1.11 |
| human PD-1 mutant S73R (hPD-1 Type I mCherry, on HEK 293 cells) (from UniProt Q15116 25-168) (receptor) | 1.11 |
| human PD-1 mutant Y68N (hPD-1 Type I mCherry, on HEK 293 cells) (from UniProt Q15116 25-168) (receptor) | 0.108 |
| human PD-1 mutant T76D (hPD-1 Type I mCherry, on HEK 293 cells) (from UniProt Q15116 25-168) (receptor) | 0.205 |
| human PD-1 mutant K78R (hPD-1 Type I mCherry, on HEK 293 cells) (from UniProt Q15116 25-168) (receptor) | 0.125 |
| human PD-1 mutant Y68R (hPD-1 Type I mCherry, on HEK 293 cells) (from UniProt Q15116 25-168) (receptor) | 0.0334 |
| human PD-1 mutant Y68Q (hPD-1 Type I mCherry, on HEK 293 cells) (from UniProt Q15116 25-168) (receptor) | 0.202 |

More lines, now with the values ahead:

| average binding normalized to wild type (AVE-hPD-L2) (relative to wild type) | Substance |
| --- | --- |
| 0.98 | human PD-1 mutant T76Q (hPD-1 Type I mCherry, on HEK 293 cells) (from UniProt Q15116 25-168) (receptor) |
| 0.0534 | human PD-1 mutant I134N (hPD-1 Type I mCherry, on HEK 293 cells) (from UniProt Q15116 25-168) (receptor) |
| 1.13 | human PD-1 mutant D77E (hPD-1 Type I mCherry, on HEK 293 cells) (from UniProt Q15116 25-168) (receptor) |
| 0.0223 | human PD-1 mutant Y68K (hPD-1 Type I mCherry, on HEK 293 cells) (from UniProt Q15116 25-168) (receptor) |
| 0.0252 | human PD-1 mutant I134Q (hPD-1 Type I mCherry, on HEK 293 cells) (from UniProt Q15116 25-168) (receptor) |
| 0.642 | human PD-1 mutant T76E (hPD-1 Type I mCherry, on HEK 293 cells) (from UniProt Q15116 25-168) (receptor) |
| 1.03 | human PD-1 mutant L128V (hPD-1 Type I mCherry, on HEK 293 cells) (from UniProt Q15116 25-168) (receptor) |
| 0.705 | human PD-1 mutant G124M (hPD-1 Type I mCherry, on HEK 293 cells) (from UniProt Q15116 25-168) (receptor) |
| 0.0105 | human PD-1 mutant N66Q (hPD-1 Type I mCherry, on HEK 293 cells) (from UniProt Q15116 25-168) (receptor) |
| 0.711 | human PD-1 mutant I126V (hPD-1 Type I mCherry, on HEK 293 cells) (from UniProt Q15116 25-168) (receptor) |
| 0.999 | human PD-1 mutant E84Y (hPD-1 Type I mCherry, on HEK 293 cells) (from UniProt Q15116 25-168) (receptor) |
| 1.13 | human PD-1 mutant Q75N (hPD-1 Type I mCherry, on HEK 293 cells) (from UniProt Q15116 25-168) (receptor) |
| 1 | human PD-1 mutant S73K (hPD-1 Type I mCherry, on HEK 293 cells) (from UniProt Q15116 25-168) (receptor) |
| 0.0105 | human PD-1 mutant I134D (hPD-1 Type I mCherry, on HEK 293 cells) (from UniProt Q15116 25-168) (receptor) |
| 1.11 | human PD-1 mutant T76Y (hPD-1 Type I mCherry, on HEK 293 cells) (from UniProt Q15116 25-168) (receptor) |

Target: recombinant hPD-L2 hIgG1 Fc-fusion protein (R&D Systems) (human) (UniProt Q9BQ51)
Assay: flow cytometry, control HEK 293 cells, one dose of hPD-L2 Fc fusion

| average binding normalized to wild type (AVE-hPD-L2) (relative to wild type) | Substance |
| --- | --- |
| 0.00648 | Control (row of Table 2) |

Target: recombinant hPD-L1 hIgG1 Fc-fusion protein (R&D Systems) (human) (UniProt Q9NZQ7)
Assay: flow cytometry, control HEK 293 cells, one dose of hPD-L1 Fc fusion

Sequence of UniProt Q9NZQ7 (Q9NZQ7 19-239 limits assumed): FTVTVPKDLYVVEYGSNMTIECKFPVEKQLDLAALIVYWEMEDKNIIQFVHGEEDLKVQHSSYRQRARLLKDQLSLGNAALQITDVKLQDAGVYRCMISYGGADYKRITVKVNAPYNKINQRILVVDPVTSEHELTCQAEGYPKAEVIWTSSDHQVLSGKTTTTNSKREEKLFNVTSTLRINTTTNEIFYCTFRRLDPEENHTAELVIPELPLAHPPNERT

| average binding normalized to wild type (AVE-hPD-L1) (relative to wild type) | Substance |
| --- | --- |
| 0.0144 | Control (row of Table 2) |
